The values that follow come from patent publication US20240417464A1 (published 2024).

Residue numbers refer to the chain shown, from its start.

Assay [1] concerns the target T1, antibody-half molecule A1 with PF1H and PF1L-k0 (PF1H-DA303v2/PF1L-k0). The assay can be described thus: SPR (Biacore T200), about 50 RU of half molecule A captured on chip-bound biotinylated antigen peptide, half molecule B at 2.5 mg/mL as analyte. How it is done:
(§1) The interaction between the obtained antibody-half molecules was analyzed using Biacore (registered trademark) T200. Biotin CAPture Kit, Series S (GE Healthcare) was used for the measurement, and HBS-EP+10X (GE Healthcare) diluted 1/10th was used as a running buffer. The measurement temperature was 25° C. For the sensor chip, Series S Sensor Chip CAP (GE Healthcare) onto which previously-biotinylated antigen peptides were allowed to interact and thereby immobilized was used. These chips were allowed to capture approximately 50 RU of the antibody-half molecule A of interest and then interact with the antibody-half molecule B of interest diluted with the running buffer at 2.5 mg/mL for 180 seconds at a flow rate of 30 μL/min, and measurement was carried out. The molar binding ratio was calculated based on the following Formula 2. The antibody-half molecule A captured on the chip was washed as described in the instructions attached to the kit, and the chip was regenerated and reused.
(§2) At this time, for the antibody-half molecules to be captured, PF1H (SEQ ID NO: 22), which is the H chain variable region portion of the anti-human IL6 receptor antibody described in WO 2009/041621, was used as the H chain variable region portion, PF1L (SEQ ID NO: 23), which is the L chain variable region portion of the anti-human IL6 receptor antibody described in WO 2009/041621, was used as the L chain variable region portion, and k0 was used as the L chain constant region portion. In addition, for the antibody-half molecules used as analytes, IC17H (SEQ ID NO: 24), which is the anti-KLH antibody described in WO 2015/174439, was used as the H chain variable region, IC17L (SEQ ID NO: 25), which is the anti-KLH antibody described in WO 2015/174439, was used as the L chain variable region, and k0 was used as the L chain constant region.

Assay [2] addresses T1, antibody-half molecule A1 with PF1H and …. The assay can be described thus: SPR (Biacore T200), about 50 RU of half molecule A captured on chip-bound biotinylated antigen peptide, half molecule B at 2.5 mg/mL as analyte (Example 10). How it is done:
as §1
(§3) At this time, for the antibody-half molecule to be captured, PF1H (SEQ ID NO: 22), which is the H chain variable region portion of the anti-human IL6 receptor antibody described in WO 2009/041621, was used as the H chain variable region portion, PF1L (SEQ ID NO: 23), which is the L chain variable region portion of the anti-human IL6 receptor antibody described in WO 2009/041621, was used as the L chain variable region portion, and k0 was used as the L chain constant region portion. In addition, for the antibody-half molecules used as analytes, IC17H (SEQ ID NO: 24), which is the anti-KLH antibody described in WO 2015/174439, was used as the H chain variable region, IC17L (SEQ ID NO: 25), which is the anti-KLH antibody described in WO 2015/174439, was used as the L chain variable region, and k0 was used as L chain constant region.
Background: Surface plasmon resonance follows binding to a sensor surface in real time, without labels.

Assay [3] addresses antibody-half molecule A7 with PF1H and PF1L-k0 (PF1H-DA303v2.n.HATF.B/PF1L-k0). The description is as above. How it is done: as §1, §3
Assay [4] has as its target antibody-half molecule A5 with PF1H and PF1L-k0 (PF1H-DA430v2/PF1L-k0). The experiment in a line: SPR (Biacore T200), about 50 RU of half molecule A captured on chip-bound biotinylated antigen peptide, half molecule B at 2.5 mg/mL as analyte. How it is done:
as §1, §2

The target of assay [5] is antibody-half molecule A2 with PF1H and PF1L-k0 (PF1H-DA402v2/PF1L-k0). The assay is described as above. How it is done: as §1, §2
Sequence of antibody-half molecule A2 with PF1H and PF1L-k0 (PF1H-DA402v2/PF1L-k0) (heavy, as listed by the source): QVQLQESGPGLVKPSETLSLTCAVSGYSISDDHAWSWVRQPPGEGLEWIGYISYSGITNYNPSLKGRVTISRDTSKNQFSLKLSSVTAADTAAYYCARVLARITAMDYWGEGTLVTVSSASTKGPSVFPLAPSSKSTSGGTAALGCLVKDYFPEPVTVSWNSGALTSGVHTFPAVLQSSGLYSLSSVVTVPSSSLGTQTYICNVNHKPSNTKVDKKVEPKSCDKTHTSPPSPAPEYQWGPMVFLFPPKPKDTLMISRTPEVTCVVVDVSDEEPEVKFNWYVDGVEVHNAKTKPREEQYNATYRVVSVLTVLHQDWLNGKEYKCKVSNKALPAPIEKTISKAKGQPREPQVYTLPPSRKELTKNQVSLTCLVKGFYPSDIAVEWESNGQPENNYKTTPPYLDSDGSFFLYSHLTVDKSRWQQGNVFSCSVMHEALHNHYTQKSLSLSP
For assay [6], the target named is antibody-half molecule A6 with PF1H and PF1L-k0 (PF1H-DA303v2.n.n/PF1L-k0). The experiment in a line: SPR (Biacore T200), about 50 RU of half molecule A captured on chip-bound biotinylated antigen peptide, half molecule B at 2.5 mg/mL as analyte (Example 10). How it is done:
as §1, §3

In assay [7] the target is antibody-half molecule A3 with PF1H and PF1L-k0 (PF1H-DA405v2/PF1L-k0). The assay can be described thus: SPR (Biacore T200), about 50 RU of half molecule A captured on chip-bound biotinylated antigen peptide, half molecule B at 2.5 mg/mL as analyte. How it is done: as §1, §2
Sequence of antibody-half molecule A3 with PF1H and PF1L-k0 (PF1H-DA405v2/PF1L-k0) (heavy, as listed by the source): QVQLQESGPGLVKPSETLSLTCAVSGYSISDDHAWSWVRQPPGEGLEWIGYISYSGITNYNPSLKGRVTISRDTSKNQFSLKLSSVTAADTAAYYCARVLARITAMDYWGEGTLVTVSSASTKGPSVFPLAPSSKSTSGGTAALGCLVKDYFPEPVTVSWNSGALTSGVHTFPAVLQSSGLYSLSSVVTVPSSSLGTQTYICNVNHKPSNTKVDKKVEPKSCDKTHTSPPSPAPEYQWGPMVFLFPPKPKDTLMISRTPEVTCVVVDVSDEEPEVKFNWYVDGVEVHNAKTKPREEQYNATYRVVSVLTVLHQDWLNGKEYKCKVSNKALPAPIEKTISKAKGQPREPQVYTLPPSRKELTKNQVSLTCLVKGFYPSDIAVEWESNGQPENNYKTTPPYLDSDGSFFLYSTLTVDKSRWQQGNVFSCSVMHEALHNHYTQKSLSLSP
The target of assay [8] is antibody-half molecule A4 with PF1H and PF1L-k0 (PF1H-DA424v2/PF1L-k0). Described as above. How it is done:
as §1, §2

T1 sequence (heavy, as listed by the source): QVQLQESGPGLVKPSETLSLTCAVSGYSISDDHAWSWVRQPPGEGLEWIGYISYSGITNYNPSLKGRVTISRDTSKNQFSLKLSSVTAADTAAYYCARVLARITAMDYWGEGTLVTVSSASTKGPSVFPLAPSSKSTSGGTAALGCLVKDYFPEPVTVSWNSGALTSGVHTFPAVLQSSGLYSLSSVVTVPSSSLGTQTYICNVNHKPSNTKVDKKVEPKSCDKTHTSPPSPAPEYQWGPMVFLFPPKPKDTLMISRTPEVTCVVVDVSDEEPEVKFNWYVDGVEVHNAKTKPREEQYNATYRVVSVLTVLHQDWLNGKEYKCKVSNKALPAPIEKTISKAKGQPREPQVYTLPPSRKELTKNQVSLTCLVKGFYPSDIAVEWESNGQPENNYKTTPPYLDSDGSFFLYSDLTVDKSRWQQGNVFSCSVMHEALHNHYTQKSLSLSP
Sequence of antibody-half molecule A7 with PF1H and PF1L-k0 (PF1H-DA303v2.n.HATF.B/PF1L-k0) (heavy, as listed by the source): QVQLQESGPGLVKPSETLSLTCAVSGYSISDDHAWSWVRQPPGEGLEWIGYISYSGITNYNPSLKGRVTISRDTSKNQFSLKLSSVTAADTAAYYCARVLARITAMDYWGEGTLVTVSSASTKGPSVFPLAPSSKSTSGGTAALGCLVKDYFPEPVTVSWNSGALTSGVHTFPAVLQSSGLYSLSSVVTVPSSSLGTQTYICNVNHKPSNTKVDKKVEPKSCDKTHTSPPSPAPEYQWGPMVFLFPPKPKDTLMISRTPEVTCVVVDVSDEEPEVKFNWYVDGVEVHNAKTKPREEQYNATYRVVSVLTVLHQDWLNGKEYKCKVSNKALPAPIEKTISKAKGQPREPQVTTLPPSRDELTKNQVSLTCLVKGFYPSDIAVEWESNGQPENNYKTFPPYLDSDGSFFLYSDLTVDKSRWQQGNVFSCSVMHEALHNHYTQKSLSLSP
Sequence of antibody-half molecule A6 with PF1H and PF1L-k0 (PF1H-DA303v2.n.n/PF1L-k0) (heavy, as listed by the source): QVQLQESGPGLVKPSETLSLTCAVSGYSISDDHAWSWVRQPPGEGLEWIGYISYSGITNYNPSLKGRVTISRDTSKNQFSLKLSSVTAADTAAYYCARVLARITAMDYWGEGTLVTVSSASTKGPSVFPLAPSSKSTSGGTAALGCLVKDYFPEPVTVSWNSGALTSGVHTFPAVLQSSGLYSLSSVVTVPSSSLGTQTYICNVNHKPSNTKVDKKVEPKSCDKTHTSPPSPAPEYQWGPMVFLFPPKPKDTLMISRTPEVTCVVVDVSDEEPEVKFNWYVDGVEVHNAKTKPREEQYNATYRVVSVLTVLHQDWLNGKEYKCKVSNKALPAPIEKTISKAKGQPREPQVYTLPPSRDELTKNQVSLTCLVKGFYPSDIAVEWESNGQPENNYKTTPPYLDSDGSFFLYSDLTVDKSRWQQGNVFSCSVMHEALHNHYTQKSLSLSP
Sequence of antibody-half molecule A5 with PF1H and PF1L-k0 (PF1H-DA430v2/PF1L-k0) (heavy, as listed by the source): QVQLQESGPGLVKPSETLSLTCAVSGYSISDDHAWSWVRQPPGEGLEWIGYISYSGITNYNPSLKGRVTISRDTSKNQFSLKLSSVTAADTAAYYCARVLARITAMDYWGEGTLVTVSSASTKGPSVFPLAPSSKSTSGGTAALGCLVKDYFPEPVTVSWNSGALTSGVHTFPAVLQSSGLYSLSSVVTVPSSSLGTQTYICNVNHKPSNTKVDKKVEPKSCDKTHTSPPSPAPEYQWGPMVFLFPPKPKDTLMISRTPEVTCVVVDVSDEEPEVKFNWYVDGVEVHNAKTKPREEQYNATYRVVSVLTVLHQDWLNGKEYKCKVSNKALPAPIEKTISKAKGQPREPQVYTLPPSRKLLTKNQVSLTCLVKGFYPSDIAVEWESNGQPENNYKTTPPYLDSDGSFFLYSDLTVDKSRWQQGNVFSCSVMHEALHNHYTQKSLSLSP
Sequence of antibody-half molecule A4 with PF1H and PF1L-k0 (PF1H-DA424v2/PF1L-k0) (heavy, as listed by the source): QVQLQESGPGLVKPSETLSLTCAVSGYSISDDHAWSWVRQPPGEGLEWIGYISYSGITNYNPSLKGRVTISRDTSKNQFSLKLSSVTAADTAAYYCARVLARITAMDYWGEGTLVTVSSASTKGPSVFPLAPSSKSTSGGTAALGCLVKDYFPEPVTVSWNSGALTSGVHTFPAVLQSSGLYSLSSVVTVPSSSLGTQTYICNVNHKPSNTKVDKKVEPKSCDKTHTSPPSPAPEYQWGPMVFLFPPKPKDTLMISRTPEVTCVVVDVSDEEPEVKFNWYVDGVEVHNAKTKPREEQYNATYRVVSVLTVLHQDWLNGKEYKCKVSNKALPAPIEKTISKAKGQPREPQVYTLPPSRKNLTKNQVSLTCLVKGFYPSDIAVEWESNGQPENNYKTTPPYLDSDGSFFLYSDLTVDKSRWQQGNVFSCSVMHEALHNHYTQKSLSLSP

B1: antibody-half molecule B1 with IC17H and IC17L-k0 (IC17H-DB220v2/IC17L-k0) (antibody, human IgG1, kappa)
heavy: QVQLQQSGPQLVRPGASVKISCKASGYSFTSYWMHWVNQRPGQGLEWIGMIDPSYSETRLNQKFKDKATLTVDKSSSTAYMQLSSPTSEDSAVYYCALYGNYFDYWGQGTTLTVSSASTKGPSVFPLAPSSKSTSGGTAALGCLVKDYFPEPVTVSWNSGALTSGVHTFPAVLQSSGLYSLSSVVTVPSSSLGTQTYICNVNHKPSNTKVDKKVEPKSCDKTHTSPPSPAPELLGGPSVFLFPPKPKDTLMISRTPEVTCVVVDVSHEEPEVKFNWYVDGVEVHNAKTKPREEQYNSTYRVVSVLTVLHQDWLNGKEYKCKVSNDALPMPIEETISKAKGQPREPQVYTLPPSRDELTKNQVSLTCLVKGFYPSDIAVEWESNGQPENNYKTTPPYLDSDGSFFLYSDLTVDKSRWQQGNVFSCSVMHEALHNHYTQESLSLSP
light: DIQMTQSSSSFSVSLGDRVTITCKASEDIYNRLAWYQQKPGNAPRLLISGATSLETGVPSRFSGSGSGKDYTLSITSLQTEDVATYYCQQYWSTPYTFGGGTKLEVKRTVAAPSVFIFPPSDEQLKSGTASVVCLLNNFYPREAKVQWKVDNALQSGNSQESVTEQDSKDSTYSLSSTLTLSKADYEKHKVYACEVTHQGLSSPVTKSFNRGEC
As for B1, the molar binding ratio in assay [1] came to 0.38 molar ratio; in assay [2], 0.54 molar ratio.

B2: antibody-half molecule B7 with IC17H and IC17L-k0 (IC17H-DB220v2.n.HATF.A/IC17L-k0) (antibody, human IgG1, kappa)
heavy: B1 heavy with S363H, F404A, E438K
light: B1 light
In the case of B2, in assay [3], the molar binding ratio was 0.32 molar ratio.

B3: antibody-half molecule B5 with IC17H and IC17L-k0 (IC17H-DB430v2/IC17L-k0) (antibody, human IgG1, kappa)
heavy: B1 heavy with E356L
light: B1 light
For B3, in assay [4], the molar binding ratio was found to be 0.27 molar ratio.

B4: antibody-half molecule B2 with IC17H and IC17L-k0 (IC17H-DB402v2/IC17L-k0) (antibody, human IgG1, kappa)
heavy: B1 heavy with D408H
light: B1 light
Consider B4, for which, in assay [5], the molar binding ratio is 0.63 molar ratio.

B5: antibody-half molecule B6 with IC17H and IC17L-k0 (IC17H-DB220v2.n.n/IC17L-k0) (antibody, human IgG1, kappa)
heavy: B1 heavy with E438K
light: B1 light
In the case of B5, the molar binding ratio in assay [6] was found to be 0.42 molar ratio.

B6: antibody-half molecule B3 with IC17H and IC17L-k0 (IC17H-DB405v2/IC17L-k0) (antibody, human IgG1, kappa)
heavy: B1 heavy with D408T
light: B1 light
With B6, the molar binding ratio in assay [7] amounted to 0.54 molar ratio.

B7: antibody-half molecule B4 with IC17H and IC17L-k0 (IC17H-DB424v2/IC17L-k0) (antibody, human IgG1, kappa)
heavy: B1 heavy with E356N
light: B1 light
Consider B7, for which the molar binding ratio in assay [8] came to 0.25 molar ratio.
